PMC3688503 (2013)

B1: wild-type MTM1-B10 fusion protein [human] / wild-type MTMR12-GFP protein [human] (parent complex)
chain 1: MASASTSKYNSHSLENESIKRTSRDGVNRDLTEAVPRLPGETLITDKEVIYICPFNGPIKGRVYITNYRLYLRSLETDSSLILDVPLGVISRIEKMGGATSRGENSYGLDITCKDMRNLRFALKQEGHSRRDMFEILTRYAFPLAHSLPLFAFLNEEKFNVDGWTVYNPVEEYRRQGLPNHHWRITFINKCYELCDTYPALLVVPYRASDDDLRRVATFRSRNRIPVLSWIHPENKTVIVRCSQPLVGMSGKRNKDDEKYLDVIRETNKQISKLTIYDARPSVNAVANKATGGGYESDDAYHNAELFFLDIHNIHVMRESLKKVKDIVYPNVEESHWLSSLESTHWLEHIKLVLTGAIQVADKVSSGKSSVLVHCSDGWDRTAQLTSLAMLMLDSFYRSIEGFEILVQKEWISFGHKFASRIGHGDKNHTDADRSPIFLQFIDCVWQMSKQFPTAFEFNEQFLIIILDHLYSCRFGTFLFNCESARERQKVTERTVSLWSLINSNKEKFKNPFYTKEINRVLYPVASMRHLELWVNYYIRWNPRIKQQQPNPVEQRYMELLALRDEYIKRLEELQLANSAKLSDPPTSPSSPSQMMPHVQTHF
chain 2: MLGKGVVGGGGGTKAPKPSFVSYVRPEEIHTNEKEVTEKEVTLHLLPGEQLLCEASTVLKYVQEDSCQHGVYGRLVCTDFKIAFLGDDESALDNDETQFKNKVIGENDITLHCVDQIYGVFDEKKKTLFGQLKKYPEKLIIHCKDLRVFQFCLRYTKEEEVKRIVSGIIHHTQAPKLLKRLFLFSYATAAQNNTVTDPKNHTVMFDTLKDWCWELERTKGNMKYKAVSVNEGYKVCERLPAYFVVPTPLPEENVQRFQGHGIPIWCWSCHNGSALLKMSALPKEQDDGILQIQKSFLDGIYKTIHRPPYEIVKTEDLSSNFLSLQEIQTAYSKFKQLFLIDNSTEFWDTDIKWFSLLESSSWLDIIRRCLKKAIEITECMEAQNMNVLLLEENASDLCCLISSLVQLMMDPHCRTRIGFQSLIQKEWVMGGHCFLDRCNHLRQNDKEEVPVFLLFLDCVWQLVHQHPPAFEFTETYLTVLSDSLYIPIFSTFFFNSPHQKDTNMGREGQDTQSKPLNLLTVWDWSVQFEPKAQTLLKNPLYVEKPKLDKGQRKGMRFKHQRQLSLPLTQSKSSPKRGFFREETDHLIKNLLGKRISKLINSSDELQDNFREFYDSWHSKSTDYHGLLLPHIEGPEIKVWAQRYLRWIPEAQILGGGQVATLSKLLEMMEEVQSLQEKIDERHHSQQAPQAEAPCLLRNSARLSSLFPFALLQRHSSKPVLPTSGWKALGDEDDLAKREDEFVDLGDV

Variants of: B1
Assay: co-immunoprecipitation (anti-B10 IP, western blot quantification); overexpressed in Cos1 cells; IP with anti-B10 tag antibody; parent: 1; read off a plot

Q: How did the response turn out when chain 1 P205L was run?
A: ~0.07 AU

Q: chain 1 C375S was tested. Which response did it give?
A: ~0.92 AU

Q: How did the response turn out when chain 1 R421Q was run?
A: ~0.92 AU

Q: Which response does the source give for chain 1 R69C here?
A: ~0.05 AU

Q: With chain 1 R241C as the variant, how does the response read?
A: ~1 AU

Q: How did the response turn out when chain 1 R184G was run?
A: ~0.05 AU

Q: With chain 1 V49F as the variant, how does the response read?
A: ~0.05 AU
